According to the DeepSol protein solubility set:

test: soluble on expression in E. coli; label from the status in PepcDB or PDB records

| Sequence | soluble on expression in E. coli |
| --- | --- |
| MDEVGVASEHLPDLRDRTGHAVNLAVWGDHGPVLVRWDYGAHALPITIRVGATMPLLTSAIGRVYLAHLPATMTTSIVETELETLGTNAPSKSDVARLRATVLEQGVATISGEVIPGVMSVAAPVFPAGQSIPLAVAVALPSSLGDTATVAEVTLELLRTTKAISEDYGSVGGAAGGPIA | not soluble |
| MDEYRELISVLPLETVEYAFAYGSGAIQQQNEDKSEKMVDFVIVTKNAQEFHRDNILKNPQHYSLLRLMGPKMIEKIQCNFAARVYYNTHVKVGKRKIKYGVISYENVKQDLLDWRWIYISGRLHKPVLEVIKPRQDMCDLVTENRRSALHSSLLLLPESFTLKQLFHKIVGLSYTGDFRMVVGEDKNKINKIVEGNYEELLRVYEPLMNDDARLSVMSPAKLIQDGSTTAIYHRLNLLPSEVLNRIQKNMNRVQKRQRDAEEVIFSLAHRHDVAATVETAIGGIIRPVSLSQTAKNAFSAGVTRSIIYSMAKMSKFLKSK | not soluble |
| MDFAVMKQVKNTGLLQSEELCQYILRTSVYPREAGFLKELREANESHPDSYMSTSPLAGQLMSFVLKLVNAKKTIEVGVFTGYSLLLTALSIPDDGKITAIDFDREAYEIGLPFIRKAGVEHKINFIESDAMLALDNLLQGQESEGSYDFGFVDADKPNYIKYHERLMKLVKVGGIVAYDNTLWGGTVAQPESEVPDFMKENREAVIELNKLLAADPRIEIVHLPLGDGITFCRRLY | soluble |
| MDFPCLWLGLLLPLVAALDFNYHRQEGMEAFLKTVAQNYSSVTHLHSIGKSVKGRNLWVLVVGRFPKEHRIGIPEFKYVANMHGDETVGRELLLHLIDYLVTSDGKDPEITNLINSTRIHIMPSMNPDGFEAVKKPDCYYSIGRENYNQYDLNRNFPDAFEYNNVSRQPETVAVMKWLKTETFVLSANLHGGALVASYPFDNGVQATGALYSRSLTPDDDVFQYLAHTYASRNPNMKKGDECKNKMNFPNGVTNGYSWYPLQGGMQDYNYIWAQCFEITLELSCCKYPREEKLPSFWNNNKASLIEYIKQVHLGVKGQVFDQNGNPLPNVIVEVQDRKHICPYRTNKYGEYYLLLLPGSYIINVTVPGHDPHITKVIIPEKSQNFSALKKDILLPFQGQLDSIPVSNPSCPMIPLYRNLPDHSAATKPSLFLFLVSLLHIFFK | soluble |
| MDFPPTKLDYHVDMFNLQSHSRFLSLFKAQDGRIALILESTVFHPQGGGQPSDTGLIVFSGSDLKFSVQDVLHYGVFEGSNPESGIDSEKGKEVYLTVDESRRKLNSRQAVEDCSHCYAWHGWNKISDVWLHSAGHLLDMCMQKVGLGHLEPGKGYHFPDGPFVEYKGSVPQEEFQVKQKELEAEANELISKGGKVYAAILPYEEASVLCGGSLPDYISKGSTPRIIKLGDSPGCPCGGTHVSNLSDIISMKITQMRTKKGMTKVFYTIAS | soluble |
| MDFQHWLHEAVNQLRDSDSPRRDAEILLEYVTGKGRTYIMAFGETPLTDVQQQQLADLLQRRKQGEPIAYLTGLREFWSLPLFVSPATLIPRPDTECLVEQALARLPVKTCRILDLGTGTGAIALALACERPDCEVTAVDRMPDAVALAIRNAEHLAIRNVRILQSCWFSALSGQQFDMIVSNPPYIDAQDPHLSEGDVRFEPRSALVADENGMADLTHIIDNARQMLTPGGFLLLEHGWQQGEAVRAVFRRSGYSDVETCRDYGGNERVTCGRFTP | not soluble |
| MDGELKNLKCNISQLAAITGLHRQTVVSRLSGVPLAPGSNEKNKLYLLTDVIRVLMEAPVSQAAEHQDPNKMTPKERKDWFDSEKGRLWLEKEMKQVVPLPEVRQQMAAIVKAITQVLEVWPDKLERDKGWSADQLNEAQDVVDEVRILLVKAIQETADDDGE | not soluble |
| MDGRRLVVRHGADTSVDTVWNILTDTDCWADWGPSVTAVETATRYIDDGTTGRVCVAGAVWLPFEVTACTPYRWTWTVARLPATGHFVEERAGGSVVGFEIPPLATGYAPVCARACQRIATLAQQRDALEHHHHHH | soluble |
| MDHIVLTHVFNGGSAESAALCPQDKIIALDGYACTDFAAQWARYHVRAKINIHFFRAGILRQTVLTVQATALEHHHHHH | not soluble |
| MDHVHKSTTTDEDERNSGRAIDRHNPIIKDGRRSFADDFIKLPTSAEDGEMSNKKLEIYKGRRSITGRRSTGGGGGGGAAALLKLITNDIGLARKSFSCVARPACDLIKTPVGSTRYLLGSDPDSITGSVDQDPAKTVEAEAPAGEDKTLTEKKTTCGDTDQVSCFVVSIMSGINVNKW | not soluble |
| MDIAVQLVDSGGGTLQAGKSLRLSCAISGLAFDGGAMGSEHRLTAGAMGWFRQAPGKDREFVAAISPRTDETYYAESLEGRFSVSRDAAATMVFLQADNVRLDDTASYYCAADEDVTPRVMGVIPHADHWGQGTLVTVSSAAALEHHHHHH | soluble |
| MDIPQTKQDLELPKLAGTWHSMAMATNNISLMATLKAPLRVHITSLLPTPEDNLEIVLHRWENNSCVEKKVLGEKTENPKKFKINYTVANEATLLDTDYDNFLFLCLQDTTTPIQSMMCQYLARVLVEDDEIMQGFIRAFRPLPRHLWYLLDLKQMEEPCRF | soluble |
| MDIQIKRAYEPADPADGCRILVDRLWPRGLTKQQVACDLWLKEIAPTADLRKWFNHDPAKWAEFQRRYRDELSVNPCVKELLDRAAKGRLTLLYGARDAECNQAVVLRDYLLERN | not soluble |
| MDIRKFFGVIPSGKKLVSETVKKNEKTKSDEETLKAKKGIKEIKVNSSRKEDDFKQKQPSKKKRIIYDSDSESEETLQVKNAKKPPEKLPVSSKPGKISRQDPVTYISETDEEDDFMCKKAASKSKENGRSTNSHLGTSNMKKNEENTKTKNKPLSPIKLTPTSVLDYFGTGSVQRSNKKMVASKRKELSQNTDESGLNDEAIAKQLQLDEDAELERQLHEDEEFARTLAMLDEEPKTKKARKDTEAGETFSSVQANLSKAEKHKYPHKVKTAQVSDERKSYSPRKQSKYESSKESQQHSKSSADKIGEVSSPKASSKLAIMKRKEESSYKEIEPVASKRKENAIKLKGETKTPKKTKSSPAKKESVSPEDSEKKRTNYQAYRSYLNREGPKALGSKEIPKGAENCLEGLIFVITGVLESIERDEAKSLIERYGGKVTGNVSKKTNYLVMGRDSGQSKSDKAAALGTKIIDEDGLLNLIRTMPGKKSKYEIAVETEMKKESKLERTPQKNVQGKRKISPSKKESESKKSRPTSKRDSLAKTIKKETDVFWKSLDFKEQVAEETSGDSKARNLADDSSENKVENLLWVDKYKPTSLKTIIGQQGDQSCANKLLRWLRNWQKSSSEDKKHAKFGKFSGKDDGSSFKAALLSGPPGVGKTTTASLVCQELGYSYVELNASDTRSKSSLKAIVAESLNNTSIKGFYSNGAASSVSTKHALIMDEVDGMAGNEDRGGIQELIGLIKHTKIPIICMCNDRNHPKIRSLVHYCFDLRFQRPRVEQIKGAMMSIAFKEGLKIPPPAMNEIILGANQDIRQVLHNLSMWCARSKALTYDQAKADSHRAKKDIKMGPFDVARKVFAAGEETAHMSLVDKSDLFFHDYSIAPLFVQENYIHVKPVAAGGDMKKHLMLLSRAADSICDGDLVDSQIRSKQNWSLLPAQAIYASVLPGELMRGYMTQFPTFPSWLGKHSSTGKHDRIVQDLALHMSLRTYSSKRTVNMDYLSLLRDALVQPLTSQGVDGVQDVVALMDTYYLMKEDFENIMEISSWGGKPSPFSKLDPKVKAAFTRAYNKEAHLTPYSLQAIKASRHSTSPSLDSEYNEELNEDDSQSDEKDQDAIETDAMIKKKTKSSKPSKPEKDKEPRKGKGKSSKK | soluble |
| MDKGKGSKRSTPSLRAKKKTGTDRQKPSVKQNASQNSKKSSRQKKTPSVGKEREQATDKKREIEKKPQEKTALDEQQRKAQTETISNLEILPDKNPAKMDDGYEDFGPGAAAR | not soluble |
| MDKHQQAIITVSAYITNDTGEVLLVKSYDRSDTWEMPGGQVEPGEPLDRAVHREVYEETGVDIRLIGVSGVYYNETKNIINIVFKATYVKGNVSPQPEEIQKAKFVLIDESNIDEYVTWPHLKSRVLDAMKRECSVPYETWVMNPSRLSARVGR | not soluble |
